This is an account of results in IntAct's records for PubMed 24630722.

Sequences and labels used below:
B1: Interferon-inducible protein AIM2 (Homo sapiens), O14862 (parent)
chain: MESKYKEILLLTGLDNITDEELDRFKFFLSDEFNIATGKLHTANRIQVATLMIQNAGAVSAVMKTIRIFQKLNYMLLAKRLQEEKEKVDKQYKSVTKPKPLSQAEMSPAASAAIRNDVAKQRAAPKVSPHVKPEQKQMVAQQESIREGFQKRCLPVMVLKAKKPFTFETQEGKQEMFHATVATEKEFFFVKVFNTLLKDKFIPKRIIIIARYYRHSGFLEVNSASRVLDAESDQKVNVPLNIIRKAGETPKINTLQTQPLGTIVNGLFVVQKVTEKKKNILFDLSDNTGKMEVLGVRNEDTMKCKEGDKVRLTFFTLSKNGEKLQLTSGVHSTIKVIKAKKKT

The variants in the test derive from B1. As to conditions: with asc_human PYCARD.
On to MESKYKEILLLTGLDNITDEELDRFKFFLSDEFNIATGELHTANRIQVATLMIQNAGAVSAVMKTIRIFQKLNYMLLAKRLQEEKEKVDKQYKSVTKPKPLSQAEMSPAASAAIRNDVAKQRAAPKVSPHVKPEQKQMVAQQESIREGFQKRCLPVMVLKAKKPFTFETQEGKQEMFHATVATEKEFFFVKVFNTLLKDKFIPKRIIIIARYYRHSGFLEVNSASRVLDAESDQKVNVPLNIIRKAGETPKINTLQTQPLGTIVNGLFVVQKVTEKKKNILFDLSDNTGKMEVLGVRNEDTMKCKEGDKVRLTFFTLSKNGEKLQLTSGVHSTIKVIKAKKKT [K39E], for which the “effect of a mutation on the interaction” value is “decreasing interaction strength”.

MESKYKEILLLTGLDNITDEELDRFKFFLSDEFNIATEKLHTANRIQVATLMIQNAGAVSAVMKTIRIFQKLNYMLLAKRLQEEKEKVDKQYKSVTKPKPLSQAEMSPAASAAIRNDVAKQRAAPKVSPHVKPEQKQMVAQQESIREGFQKRCLPVMVLKAKKPFTFETQEGKQEMFHATVATEKEFFFVKVFNTLLKDKFIPKRIIIIARYYRHSGFLEVNSASRVLDAESDQKVNVPLNIIRKAGETPKINTLQTQPLGTIVNGLFVVQKVTEKKKNILFDLSDNTGKMEVLGVRNEDTMKCKEGDKVRLTFFTLSKNGEKLQLTSGVHSTIKVIKAKKKT [G38E]: the “effect of a mutation on the interaction” value is on record as “decreasing interaction strength”.

As for MESKYKEILAATGLDNITDEELDRFKFFLSDEFNIATGKLHTANRIQVATLMIQNAGAVSAVMKTIRIFQKLNYMLLAKRLQEEKEKVDKQYKSVTKPKPLSQAEMSPAASAAIRNDVAKQRAAPKVSPHVKPEQKQMVAQQESIREGFQKRCLPVMVLKAKKPFTFETQEGKQEMFHATVATEKEFFFVKVFNTLLKDKFIPKRIIIIARYYRHSGFLEVNSASRVLDAESDQKVNVPLNIIRKAGETPKINTLQTQPLGTIVNGLFVVQKVTEKKKNILFDLSDNTGKMEVLGVRNEDTMKCKEGDKVRLTFFTLSKNGEKLQLTSGVHSTIKVIKAKKKT [L10A;L11A], the “effect of a mutation on the interaction” value is “disrupting interaction strength”.

As to MESKYKEILLLTGLDNITDEELDRFKFFLSDEFNIATGKLHTANRIQVATLMIQNAGAVSAVMKTIRIFQKLNRMLLAKRLQEEKEKVDKQYKSVTKPKPLSQAEMSPAASAAIRNDVAKQRAAPKVSPHVKPEQKQMVAQQESIREGFQKRCLPVMVLKAKKPFTFETQEGKQEMFHATVATEKEFFFVKVFNTLLKDKFIPKRIIIIARYYRHSGFLEVNSASRVLDAESDQKVNVPLNIIRKAGETPKINTLQTQPLGTIVNGLFVVQKVTEKKKNILFDLSDNTGKMEVLGVRNEDTMKCKEGDKVRLTFFTLSKNGEKLQLTSGVHSTIKVIKAKKKT [Y74R], the “effect of a mutation on the interaction” value was “disrupting interaction strength”.

On to MESKYKEILLLTGLDNITDEELDEFKFFLSDEFNIATGKLHTANRIQVATLMIQNAGAVSAVMKTIRIFQKLNYMLLAKRLQEEKEKVDKQYKSVTKPKPLSQAEMSPAASAAIRNDVAKQRAAPKVSPHVKPEQKQMVAQQESIREGFQKRCLPVMVLKAKKPFTFETQEGKQEMFHATVATEKEFFFVKVFNTLLKDKFIPKRIIIIARYYRHSGFLEVNSASRVLDAESDQKVNVPLNIIRKAGETPKINTLQTQPLGTIVNGLFVVQKVTEKKKNILFDLSDNTGKMEVLGVRNEDTMKCKEGDKVRLTFFTLSKNGEKLQLTSGVHSTIKVIKAKKKT [R24E], for which the “effect of a mutation on the interaction” value is “disrupting interaction strength”.

Regarding MESKYKEILLLTGLDNITDEELDRFKGFLSDEFNIATGKLHTANRIQVATLMIQNAGAVSAVMKTIRIFQKLNYMLLAKRLQEEKEKVDKQYKSVTKPKPLSQAEMSPAASAAIRNDVAKQRAAPKVSPHVKPEQKQMVAQQESIREGFQKRCLPVMVLKAKKPFTFETQEGKQEMFHATVATEKEFFFVKVFNTLLKDKFIPKRIIIIARYYRHSGFLEVNSASRVLDAESDQKVNVPLNIIRKAGETPKINTLQTQPLGTIVNGLFVVQKVTEKKKNILFDLSDNTGKMEVLGVRNEDTMKCKEGDKVRLTFFTLSKNGEKLQLTSGVHSTIKVIKAKKKT [F27G], the “effect of a mutation on the interaction” value is listed as “disrupting interaction strength”.

Take MESKYKEILLLTGLRNITDEELDRFKFFLSDEFNIATGKLHTANRIQVATLMIQNAGAVSAVMKTIRIFQKLNYMLLAKRLQEEKEKVDKQYKSVTKPKPLSQAEMSPAASAAIRNDVAKQRAAPKVSPHVKPEQKQMVAQQESIREGFQKRCLPVMVLKAKKPFTFETQEGKQEMFHATVATEKEFFFVKVFNTLLKDKFIPKRIIIIARYYRHSGFLEVNSASRVLDAESDQKVNVPLNIIRKAGETPKINTLQTQPLGTIVNGLFVVQKVTEKKKNILFDLSDNTGKMEVLGVRNEDTMKCKEGDKVRLTFFTLSKNGEKLQLTSGVHSTIKVIKAKKKT [D15R]: the “effect of a mutation on the interaction” value is “disrupting interaction strength”.
